Source: a protein production outcome set (Wang et al. 2014)

Test: label from the status in PepcDB records

Row | Sequence | protein production
1 | MKLHLTNLYGMAGDSTVILAQNAVQKIASQLGFREVGIYFYNIASDSPSEMNKRLDGIMASISIGDILVFQSPTWNGFEFDRLLFDKLKDMQVKIICFIHDVVPLMFDSNYYLMKDYLYMYNLSDVLIVPSERMKTRLMEEGLTTKKILVQGMWDHPHDLSLYTPAFKKELFFAGSLERFPDLQNWSQDTPLRVFSNKGEASSSARSLSIEGWKKDEELLLELSKGGFGLVWGTHQNEGESNQYYTLNISHKVSTYLTAGIPVIVPSSLSTAKFIVDQGLGFMADSLEEVHEIVDKMNLQEYQEMTNRIKTFSYLLKEGYFTKKLLVDAIYHLGID | failed
2 | MKLIKFVRNVVLFILTAIFLAFMLLVSYCMPHYSAAVISGVEVKRMNENENTPNNKEVKTLARDVYFVQTYDPKDQKSVTVYRNEDTRFSFPFYFKFNSADISALAQSLINQQVEVKYYGWRINLFNMFPNVIFLKPLKESTDISKPIFSWILYALLLMGFFISARSVCTLFKSKAH | failed
3 | MKLIKTIDAVGQVLCHDITQIIPGEFKGRKFKKGHIVKEEDIPVLLSLGKDNLYVWEKSEGMVHENEGALFLKELTAGENLDFSEIKEGKIDFIAACDGLLKIDVDALFDLNCVGEIMMATLHNNFIVNKGLKVAGTRVIPLVIDEKKLEDAKKVVGNRKIVNVVPFKPKKVGIVTTGNEVFYSRIVDKFGPVIEEKVKGFGCEVIGQTICPDDKEIIKSAIKEFISQGAELICCTGGMSVDPDDVTPTAIKETGADLVTYGSPILPGAMFLLAYYGEVPIMGIPGCAMYHKTTVFDIVLSRVLIDEKLDKYDIARYGHGGLCMNCDVCTYPACNFAKILEHHHHHH | failed
4 | MKLIQMSDHIYKLNIQTTVGIPIQINTWFIVNDNDVYIIDTGMDDYAELQITIAKSLGNPKGIFLTHGHLDHINGAKRISEALKIPIFTYKNELPYINGELPYPNKTHTENTGVQYIVKPLETNTNLPFNYYLTPGHAPGHVIYFHNQDKILICGDLFISDAQHLHIPIKKFTYNMTENIKSGQIIDNLCPKLITTSHGDDLYYSDDIYSIYKFKYEELEHHHHHH | failed
5 | MKLIRLIASPILMYVLAGVYALVLAIATFVENSSGPAVAREYFYYAPWFILLQLLQAVNLLAMFLQGGYFKRISKGSLIFHGALVFIWLGAAVTHYAGVTGIMHIREGETVDRMMRDEGAGMGNASLPFSVTLDDFRLKRYPGSHSPMSYESDLVIKKENEAPLQATVRMNKVIEVDGYRLFQSSFDPDEQGTVLSVSYDRPGMQITYIGYFLLFAGFVLTLFSKKSRFGRLRRELGEMKKNAPFCLLLFLGLSGALGTQASYAQETLSSSQLPCIPAPHARKFGSLVLLNPNGRLEPVNSYTSAILRKLYGADKLNSINSDQFFLNLLAFPDEWGGYPFIKVDNKDILQRFGRDGKYIAWQDVFDADGNYVLTDEVNAIYAKSASERKRMDSDLLKLDESVNIVYRIMQHQLLPLFPDENDVQGKWYSAGDEQTVFHDKDSLFVSKIMDWYIYELGNGVRTNNWKEADKIVDMMHIFQQAKSKTPAIDNQRVKAELLYNQLNLFFWCRLAYLILGGILLFIACGEIIADFKWGSRLSSILIVLLIAAFLAHTTGVLLRWYISERAPWANAYESMICTSWLLVGGGLLFARRFRILPALAGLLGGIMLFVAGLNHLNPEITPLVPVLQSYWLMSHVAIIMIGYVFFALCALTGLFNLILMNLLSATNRVKLLFRIREFTLLNEMAMILGLFFMTAGTFLGAIWANVSWGRYWGWDPKETWALISIVVYALVLHIRFIPLLKGKTTWCYNLLSVVSILSIIMTWFGVNYYLSGLHSYGKTEGGDLLLWIWGAGLCVVLALALFARRRLKKYS | failed
6 | MKLISQAVKNYLPELSLRQKQTNNIIFITFWSQFSVYALNTVLVLFLTRPLIAQGLGYSQAKAYAFIGVTQATGYLMPILGGYMADNIVGVRRSILLGSIMLACAYLLVMLSGYTISSLGDQLFIIAFAFIPATNSLLMGTASSMVSHIYSDDAIKAKSAMTYYYMAINVGALLATMIAPVLLESRYGPLSVLTLTFIGKSIAALNFAKRYSIYDSVIWGMDKSKFSNQGLLRLVAYIAAIYSLTLYAYTHVYIASTLIGAGCAIGILWFLIKTIMLKGETRSKQMIAVLLIIEAIVFFIIYNQMNSTLVLFAENNSDLSFLWFKISPAQYQMLNPLLILLIGSQLPRFYRFFSRFTIPYQFAAGTILSGIALLVMAFAAQNAINGLVNGNYIALTYILISIAELWVSAIGLSMIGLYCDARAIAFAMGVWYLASSMSNAISGRIAGWVAIPENINSALESLPYYKNYYLIMGISALGLGILMYFVAYYLHKIMKRRGIELA | failed
7 | MKLKKEKKMAEFTFEIEEHLLTLSENEKGWTKEINRVSFNGAPAKFDIRAWSPDHTKMGKGITLSNEEFQTMVDAFKGNLEHHHHHH | not failed
8 | MKLLENSRFEALSSQLCVETGDAQIIGRIESYSCKMAGDDKHMFKQFCQEGEPHVLEALSPPQSSSAPSPNLLGKSGEDAENPLSDKCCRKTLFYLITTLNESFRPDYDFSAARAHEFSREPSANWVANSVNSSLYSAVGEQFNTLGPELWTAIDQEINLQGCDIYSYNPDLDSDPFGEEGSLWSFNYFFYNKKLKRILFFTCRSVSVLSSYGRSGLDNELDMELDDEEELDGFMEDRIPRALCV | failed
9 | MKLLFVSPGWPRGRLWGELGFKFPSLSLAALAAVTPESWDVALCDENIEPLDLNSDADLVAITAMTPQAPQAYRIAAAFRARGKRVVMGGFHASNLPEEALQHVDAVVVGEGEVVWPQLLADLERGELQRIYRAATALAMEAIPVARRELFQGKRYLFTNTLQTTRGCPFDCEFCSVTAFYGRRYRKRPVDNVLAELELLRRRNSFAFFVDDNLVADRTYALSLFAGMKGMGFKWLSHAPIDFAHDREFLRAAGEAGCVGMFVGFESLNQDALAAMGKVTNTARSYLEDAQAFRDNGIGILGSFVLGCDNDTPAVFEGLLRFCEEARLEAAIFPILTPYPGTEVRRRLEAEGRIISSDWQDYDMEHVTFLPRGMSVDELQQGYDWLNRSFYSLPSMYRRIFKAHRSVQVFAPMNFGFRSAIRRKGRVA | failed
10 | MKLMVNHQTHYHYSEVARNSIQYIKMIPQSSPHQLVHYWDISVPGERIMKRDAFDNLWITSSQRFDYQNLTIMAQGIVELNLQNSGCHDSVVLPHVFLQPTPATLCDAEMLNFALEIVKTKDVSSLINLSQKILERITYSPYSTNVQTTAIDAFYAAQGVCQDHAHVMIAMCRALNLPARYVSGYLYDYNSPHLASHAWAEVYVDHEWHCFDVSNQIFVPKTHIYVAIGRDYFDVAPIRGIRENGGIEEMISTVQVLAC | failed
11 | MKLNIKDVVLNYNIIGEGEPIIILHGYSVDHTIMFGCMENLFSDESRYKRIYVDLPGMGKSTSSDSIKTSDNMLDIILEFIMKVTKGENFLLVGESYGGYLSRGVVYKIREKVNGLFLICPAIIPDFNKRTVPEHVILAYDEKLMSKLNKEEAEEFSSMSVVQNEKIYLRFKEEVMSGIKLGNQDFLERLQREGYGFSFDVDKLPQKFDKPTLMLLGKQDASVGYKDAWNILDNYPRATFAVLDMAGHNLQIEQEDIFNLLGKEWISRTYREKDY | failed
12 | MKLSAAGVEKIKPTDKRQEIPDSLCVGLYLIVQPTGKKGWQVRYRHGGVHRRMSLGAFPVLSLAGARERARQTLAAASAGTDPAAEVKAAKAPKLDGDRDKIKTLIGQFDKRHLSKLKSGAVVRRELERHVVSAWGERDVHQIGKRDVIDLLDGIADSGRVVTANRVRAYLAKFFGWCVERDILATSPAAGVKPAGKETSRARVLTDDEIRWFWTACEAEGFPWGPFGKVLLLTGQRLNEVAQMTDSEIRGDLWHLTADRTKNGRAHDVPLTGAVRAALDEVERVTDEEGRVRFIFTTTGRTPVSGFFKARAVLAEAMVGIAQKERGEPVEIPRWTFHDLRRTAATGMARLGIPVRVTEAVLNHVSGTGGGIVAVYQRHDYADEKRQALEAWARFVLSLVEGEADNVVRLQHG | failed
13 | MKLSILKNSMNSGKAVLFIVTGIIGLLIAIGTMLLFSFYPTEQNVSQSILYITFALWTVGWVLGPIIAGGDGILRSEYFVLLPFTSYKLARALLVVAFIGLGPIVSLIAFIGLFIYAARVSLSATIVAIPAIILQLIFVVLLSKVVVSIIGETLKSRIGMEVGAMLFGFIIAFLNVGWYVLPTINKMTLSDSTLLYMFPSSWAILAVEYAIQSNWLLVLVFLIVLTILCGLLFFIWATLLMKSTETKKIEGRITTNKHRKALRFFSETKIGATITKELKSWRRDPQRGRFLRMGIWIGVFYGILVTSANISYLMPWAGIIMIVFTSMFSCNIYGFDGSALWLTLTTPDAERIDVRGRQFAWLIAVGPIAILATIIFTISSGLTFIYPWVFTVIPALLGGAAGLIMLFSVFNVVPITDPHRRGRGSVISGDDMNASKMFITTWLMMVMVMATTIPALLVVWLGTLLHVQFLQWLGVLTGICTGMFFAWWFGRIAYLKIEKSGSELLFEMKNGMKTLRDDNKKKGNRKAVELPKKKLAIVVLLVFMGIFFLIHQSVVPLIFEIFSIDDKVRLFFLPRYVPHIVRIPIIILFAILGIASLYKAILIKKKHGKEHRFIKDEM | failed
14 | MKLSSLLNSENSEKNHLQIQQSGQRRIDRMAQSGVGKSSLWSLAEVGWTAGPVTFLAAQGGYYLGFGTWLPNENLIFFVGYTVLMGLIAVLVKFIYKATKGQELDDAKEQLLLVIGSLPDFILSVRDLTLSRMEPESRRYESARILLQKSDLGPQWLTLAVNSIIDSPVIAQAVANIEIYWRAGMYSRIHDINQELSTEISAALASLEPDRPRLARLLEQRLQGKKNTLRSGVEREPFFIERIFSAIEEDNEDIMGLSDVEEVLTLAFELLSGRRIPMLVVNCVGSSQLTIATKKLEKERSKYRIARARGYSQLLALANFLSDSNLLDYSTVAERLPSSDLLQICLETIDRLCQNICDDIGCVQKRENVDMRALKLNHSVLIKALELYQQAYRSSAMVLNEHADFLKDINSWQRINLKYADANTKVSVTGKQGLHIIERQIQLTDADKITVVKKIAHHFDSQSILSKGLRNRTQQSNWQVSNQHVRAAKQLAIDLALALNPCVFISLPEVQGAIYSSNAVDLGSFEPGLSTTTKVGWGESVAKEVKKDMVKASEQIAQAIHRYYGICLGDKELDFMHQTYGMNKEHVIDYYLENEQGEQSSNVFEPRSPLMIPEVKFAWRKTLTLYRQHI | failed
15 | MKLSVCTITFRHHLLCFSEIVEWTQRNGFDGVELWGAHARGLMRTHPEYDADWLRSYGLSVPMLSDYLPTDGDITDTRHRAIELCRIAQHWSARKIRTFAGNRPSAQLSREQRRALAGRIGEIAGIVHDHGIRLLVETHPNTLADNVDSTLGLLADANHPGLGINFDALHVWEGGDDPVLARRTLADFIGHYHLKNVRSRDELGVFAPENVYSAAGSRDGMVPLFDGAMDYEGFLASLADETDAEASLEWFGHDCFETLARDRLAIFARSISTRGRRGSAGTQQARLAESRAAGRAASSKGPSCI | failed
16 | MKLTIIRLQHFSDQDRIDLGKIWPSQDLSTLTLDENHRLYAAHFNERLLGAVRVTLRGVEGELSDLCVREVTRRRGVGQYLVEETLRDNPAINSWRVADHGVEDRGVMAAFMQALGFSAQQNGWEKH | failed
17 | MKLVICAGPATTGKTAVLRHAIGKLIGRGFKPAFLKIDVQYAEEDEQFAREFAIPTRKTYSGDLCPDHCTVMVLGEALEWAGRQGADVLLVETAGLCLRCSPYVDGGLGVIVLEATSGMNLPLKVGPMLSLADVAVVTKIDRISQAEREVFRARIQDVAPGVRIREANALHGIGIDPLVDQIQATPDVDATLSLRGNPPVGTCTICVGKKEIGWKAHFGVVRSLENQTFYRGELEHHHHHH | failed
18 | MKLYQHIETLWDYMQLKQDLKPADCLFVMCSNDVRVAEHAAALYHQKLAPLIVFSGGEGRFTDGLFEKSEAETFADIARLAGVPSDAILVETRSTNSGENVRFTEQLLKEKGIQCESIILVQKPFMERRAIATFEKQWQSPYSQVQVSSTAHPFFEYINEDMPLMMVLEALMEDFSRVKSYPEKGFQTKQDIPNQVDSSYQVLLERFGFDLVLEHHHHHH | failed
